The numbers were not newly measured in article PMC6995525, “Structure of the PUB Domain from Ubiquitin Regulatory X Domain Protein 1 (UBXD1) and Its Interaction with the p97 AAA+ ATPase” (Biomolecules, 2019), which cites them from elsewhere.

The data set deals with p97 last 10 residues (Homo sapiens) (UniProt P55072).
Chain of p97 last 10 residues (Homo sapiens) (P55072 whole entry, looked up): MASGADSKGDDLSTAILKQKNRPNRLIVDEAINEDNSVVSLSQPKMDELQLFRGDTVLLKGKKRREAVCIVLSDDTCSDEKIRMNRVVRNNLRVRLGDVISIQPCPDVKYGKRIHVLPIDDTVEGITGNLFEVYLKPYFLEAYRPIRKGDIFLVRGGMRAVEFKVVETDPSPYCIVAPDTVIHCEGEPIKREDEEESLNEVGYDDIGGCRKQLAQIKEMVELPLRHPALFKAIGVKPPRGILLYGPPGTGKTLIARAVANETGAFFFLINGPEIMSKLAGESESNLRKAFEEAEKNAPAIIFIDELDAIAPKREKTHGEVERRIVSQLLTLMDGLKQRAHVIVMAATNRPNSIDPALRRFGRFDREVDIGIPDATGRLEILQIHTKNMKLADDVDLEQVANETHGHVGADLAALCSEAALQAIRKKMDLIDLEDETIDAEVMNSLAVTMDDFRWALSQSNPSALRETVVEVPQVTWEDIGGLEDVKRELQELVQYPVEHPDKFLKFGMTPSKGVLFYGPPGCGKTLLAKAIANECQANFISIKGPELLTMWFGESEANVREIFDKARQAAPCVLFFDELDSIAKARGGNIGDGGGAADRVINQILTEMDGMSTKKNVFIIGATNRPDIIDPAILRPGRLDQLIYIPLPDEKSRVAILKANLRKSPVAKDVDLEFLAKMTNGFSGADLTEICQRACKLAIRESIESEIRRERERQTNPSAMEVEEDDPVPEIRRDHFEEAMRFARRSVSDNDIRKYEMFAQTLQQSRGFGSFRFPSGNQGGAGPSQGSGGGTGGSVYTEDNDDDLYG

Chain of UBXD1 PUB (Q9BZV1 172-247): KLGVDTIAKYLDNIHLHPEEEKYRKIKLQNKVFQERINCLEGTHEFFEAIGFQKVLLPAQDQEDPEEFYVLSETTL

As usually defined, the Kd is the equilibrium constant for the complex coming apart. On to UBXD1 PUB (from UniProt Q9BZV1), for which the Kd was 12 µM.
